According to patent US20140087995A1 (published 2014):
Numbered stars: 1 amine (or outer) side, 2 acyl side, 3 side chain; on linkers, the order of the positions; unused ones are H or OH. Bridge positions count the residues as written; N and C are the ends. Side chains are listed from the residue outwards. Ends that are not written are not given here. * marks the point of attachment. C20 diacid = O=C(O)CCCCCCCCCCCCCCCCCCC(=O)*; γGlu = O=C(O)[C@H](CCC(=O)[*:2])N[*:1]

T1: human calcitonin receptor (human, UniProt P30988 25-474)
T1 sequence (looked up): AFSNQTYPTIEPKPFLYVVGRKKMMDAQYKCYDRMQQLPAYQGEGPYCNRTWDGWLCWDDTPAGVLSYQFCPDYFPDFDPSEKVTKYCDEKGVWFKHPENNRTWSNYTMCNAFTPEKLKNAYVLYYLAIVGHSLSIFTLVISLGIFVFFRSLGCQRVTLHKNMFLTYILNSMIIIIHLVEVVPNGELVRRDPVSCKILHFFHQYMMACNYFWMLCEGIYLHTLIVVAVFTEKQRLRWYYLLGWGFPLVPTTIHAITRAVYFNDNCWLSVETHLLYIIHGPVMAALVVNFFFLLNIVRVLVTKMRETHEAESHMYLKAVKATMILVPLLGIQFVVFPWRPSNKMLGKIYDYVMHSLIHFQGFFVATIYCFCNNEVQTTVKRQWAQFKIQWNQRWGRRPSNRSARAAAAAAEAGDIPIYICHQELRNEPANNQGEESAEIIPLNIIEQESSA

B1: N^ε1-[(4S)-4-carboxy-4-[[(4S)-4-carboxy-4-(19-carboxynonadecanoylamino)butanoyl]amino]butanoyl]-[Glu14,Arg17,Pro21,Pro27,Arg34,Glu35]-h-amylin (peptide)
peptide: K([γGlu-γGlu-C20 diacid])CNTATCATQRLAEFLRHSSPNFGAIPSSTNVGRETY-NH2
modifications: disulfide 2-7; N-terminus assumed
SMILES: CC[C@H](C)[C@H](NC(=O)[C@H](C)NC(=O)CNC(=O)[C@H](Cc1ccccc1)NC(=O)[C@H](CC(N)=O)NC(=O)[C@@H]1CCCN1C(=O)[C@H](CO)NC(=O)[C@H](CO)NC(=O)[C@H](Cc1c[nH]cn1)NC(=O)[C@H](CCCNC(=N)N)NC(=O)[C@H](CC(C)C)NC(=O)[C@H](Cc1ccccc1)NC(=O)[C@H](CCC(=O)O)NC(=O)[C@H](C)NC(=O)[C@H](CC(C)C)NC(=O)[C@H](CCCNC(=N)N)NC(=O)[C@H](CCC(N)=O)NC(=O)[C@@H](NC(=O)[C@H](C)NC(=O)[C@@H]1CSSC[C@H](NC(=O)[C@@H](N)CCCCNC(=O)CC[C@H](NC(=O)CC[C@H](NC(=O)CCCCCCCCCCCCCCCCCCC(=O)O)C(=O)O)C(=O)O)C(=O)N[C@@H](CC(N)=O)C(=O)N[C@@H]([C@@H](C)O)C(=O)N[C@@H](C)C(=O)N[C@@H]([C@@H](C)O)C(=O)N1)[C@@H](C)O)C(=O)N1CCC[C@H]1C(=O)N[C@@H](CO)C(=O)N[C@@H](CO)C(=O)N[C@H](C(=O)N[C@@H](CC(N)=O)C(=O)N[C@H](C(=O)NCC(=O)N[C@@H](CCCNC(=N)N)C(=O)N[C@@H](CCC(=O)O)C(=O)N[C@H](C(=O)N[C@@H](Cc1ccc(O)cc1)C(N)=O)[C@@H](C)O)C(C)C)[C@@H](C)O
notes: synthetic peptide amide
B2: N^ε1-[(4S)-4-carboxy-4-[[(4S)-4-carboxy-4-(19-carboxynonadecanoylamino)butanoyl]amino]butanoyl]-[Glu14,Arg17,Pro21,Pro27,Pro34,Phe37]-h-amylin (peptide)
peptide: K([γGlu-γGlu-C20 diacid])CNTATCATQRLAEFLRHSSPNFGAIPSSTNVGPNTF-NH2
modifications: disulfide 2-7; N-terminus assumed
SMILES: CC[C@H](C)[C@H](NC(=O)[C@H](C)NC(=O)CNC(=O)[C@H](Cc1ccccc1)NC(=O)[C@H](CC(N)=O)NC(=O)[C@@H]1CCCN1C(=O)[C@H](CO)NC(=O)[C@H](CO)NC(=O)[C@H](Cc1c[nH]cn1)NC(=O)[C@H](CCCNC(=N)N)NC(=O)[C@H](CC(C)C)NC(=O)[C@H](Cc1ccccc1)NC(=O)[C@H](CCC(=O)O)NC(=O)[C@H](C)NC(=O)[C@H](CC(C)C)NC(=O)[C@H](CCCNC(=N)N)NC(=O)[C@H](CCC(N)=O)NC(=O)[C@@H](NC(=O)[C@H](C)NC(=O)[C@@H]1CSSC[C@H](NC(=O)[C@@H](N)CCCCNC(=O)CC[C@H](NC(=O)CC[C@H](NC(=O)CCCCCCCCCCCCCCCCCCC(=O)O)C(=O)O)C(=O)O)C(=O)N[C@@H](CC(N)=O)C(=O)N[C@@H]([C@@H](C)O)C(=O)N[C@@H](C)C(=O)N[C@@H]([C@@H](C)O)C(=O)N1)[C@@H](C)O)C(=O)N1CCC[C@H]1C(=O)N[C@@H](CO)C(=O)N[C@@H](CO)C(=O)N[C@H](C(=O)N[C@@H](CC(N)=O)C(=O)N[C@H](C(=O)NCC(=O)N1CCC[C@H]1C(=O)N[C@@H](CC(N)=O)C(=O)N[C@H](C(=O)N[C@@H](Cc1ccccc1)C(N)=O)[C@@H](C)O)C(C)C)[C@@H](C)O
notes: synthetic peptide amide
B3: N^ε1-[(4S)-4-carboxy-4-[[(4S)-4-carboxy-4-(19-carboxynonadecanoylamino)butanoyl]amino]butanoyl]-[Glu14,Arg17,Pro21,Pro27,Pro34,Arg35]-h-amylin (peptide)
peptide: K([γGlu-γGlu-C20 diacid])CNTATCATQRLAEFLRHSSPNFGAIPSSTNVGPRTY-NH2
modifications: disulfide 2-7; N-terminus assumed
SMILES: CC[C@H](C)[C@H](NC(=O)[C@H](C)NC(=O)CNC(=O)[C@H](Cc1ccccc1)NC(=O)[C@H](CC(N)=O)NC(=O)[C@@H]1CCCN1C(=O)[C@H](CO)NC(=O)[C@H](CO)NC(=O)[C@H](Cc1c[nH]cn1)NC(=O)[C@H](CCCNC(=N)N)NC(=O)[C@H](CC(C)C)NC(=O)[C@H](Cc1ccccc1)NC(=O)[C@H](CCC(=O)O)NC(=O)[C@H](C)NC(=O)[C@H](CC(C)C)NC(=O)[C@H](CCCNC(=N)N)NC(=O)[C@H](CCC(N)=O)NC(=O)[C@@H](NC(=O)[C@H](C)NC(=O)[C@@H]1CSSC[C@H](NC(=O)[C@@H](N)CCCCNC(=O)CC[C@H](NC(=O)CC[C@H](NC(=O)CCCCCCCCCCCCCCCCCCC(=O)O)C(=O)O)C(=O)O)C(=O)N[C@@H](CC(N)=O)C(=O)N[C@@H]([C@@H](C)O)C(=O)N[C@@H](C)C(=O)N[C@@H]([C@@H](C)O)C(=O)N1)[C@@H](C)O)C(=O)N1CCC[C@H]1C(=O)N[C@@H](CO)C(=O)N[C@@H](CO)C(=O)N[C@H](C(=O)N[C@@H](CC(N)=O)C(=O)N[C@H](C(=O)NCC(=O)N1CCC[C@H]1C(=O)N[C@@H](CCCNC(=N)N)C(=O)N[C@H](C(=O)N[C@@H](Cc1ccc(O)cc1)C(N)=O)[C@@H](C)O)C(C)C)[C@@H](C)O
notes: synthetic peptide amide; also called compound 110
B4: N^ε1-[(4S)-4-carboxy-4-[[(4S)-4-carboxy-4-(19-carboxynonadecanoylamino)butanoyl]amino]butanoyl]-[Glu14,Arg17,Pro21,Pro27,His34,Glu35]-h-amylin (peptide)
peptide: K([γGlu-γGlu-C20 diacid])CNTATCATQRLAEFLRHSSPNFGAIPSSTNVGHETY-NH2
modifications: disulfide 2-7; N-terminus assumed
SMILES: CC[C@H](C)[C@H](NC(=O)[C@H](C)NC(=O)CNC(=O)[C@H](Cc1ccccc1)NC(=O)[C@H](CC(N)=O)NC(=O)[C@@H]1CCCN1C(=O)[C@H](CO)NC(=O)[C@H](CO)NC(=O)[C@H](Cc1c[nH]cn1)NC(=O)[C@H](CCCNC(=N)N)NC(=O)[C@H](CC(C)C)NC(=O)[C@H](Cc1ccccc1)NC(=O)[C@H](CCC(=O)O)NC(=O)[C@H](C)NC(=O)[C@H](CC(C)C)NC(=O)[C@H](CCCNC(=N)N)NC(=O)[C@H](CCC(N)=O)NC(=O)[C@@H](NC(=O)[C@H](C)NC(=O)[C@@H]1CSSC[C@H](NC(=O)[C@@H](N)CCCCNC(=O)CC[C@H](NC(=O)CC[C@H](NC(=O)CCCCCCCCCCCCCCCCCCC(=O)O)C(=O)O)C(=O)O)C(=O)N[C@@H](CC(N)=O)C(=O)N[C@@H]([C@@H](C)O)C(=O)N[C@@H](C)C(=O)N[C@@H]([C@@H](C)O)C(=O)N1)[C@@H](C)O)C(=O)N1CCC[C@H]1C(=O)N[C@@H](CO)C(=O)N[C@@H](CO)C(=O)N[C@H](C(=O)N[C@@H](CC(N)=O)C(=O)N[C@H](C(=O)NCC(=O)N[C@@H](Cc1c[nH]cn1)C(=O)N[C@@H](CCC(=O)O)C(=O)N[C@H](C(=O)N[C@@H](Cc1ccc(O)cc1)C(N)=O)[C@@H](C)O)C(C)C)[C@@H](C)O
notes: synthetic peptide amide

What follows are binders tested against T1, human calcitonin receptor (assay: cell-based or functional assay).

In order of rising “hCTR funct. EC50 (pM)” value:
1. K([γGlu-γGlu-C20 diacid])CNTATCATQRLAEFLRHSSPNFGAILSSTPVGPETY-NH2 (disulfide 2-7, synthetic peptide amide)  1280 pM
2. B2  2140 pM
3. K([γGlu-γGlu-C20 diacid])CNTATCATQRLAEFLRHSSPNFGAIPSSTNVGPHTY-NH2 (disulfide 2-7 (inferred), synthetic peptide amide)  2830 pM
4. B4  7050 pM
5. B1  7430 pM
6. B3  8160 pM
